B1: SNAP91 (parent)
chain: FAQPMMRPPFGAAAVPGTQLSPSP

Variants of: B1
Experiment: protein stability index of a GFP-peptide fusion (GPS, HEK-293T) (PSI 1-6); higher = more stable
Settings: c terminus: a fixed tail appended
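Further: lentivirally expressed fusions sorted by FACS into six bins by GFP to DsRed ratio, PSI derived from sequencing read proportions per bin multiplied by bin number.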

Row | Variant | protein stability index
1 | FAQPMMRPPFGAAATPGTQLSPSP [V15T] | 3.5
2 | FAQPMMRPPFGAAARPGTQLSPSP [V15R] | 3.31
3 | FAQPMMRPPFGAAASPGTQLSPSP [V15S] | 3.28
4 | FAQPMMRPPFGAAAQPGTQLSPSP [V15Q] | 3.42
5 | FAQPMMRPPFGAAANPGTQLSPSP [V15N] | 3.27
6 | FAQPMMRPPFGAAAYPGTQLSPSP [V15Y] | 2.83
7 | FAQPMMRPPFGAAAWPGTQLSPSP [V15W] | 2.52
8 | FAQPMMRPPFGAAAVGGTQLSPSP [P16G] | 2.81
9 | FAQPMMRPPFGAAAVYGTQLSPSP [P16Y] | 2.15
10 | FAQPMMRPPFGAAAVMGTQLSPSP [P16M] | 2.69
11 | FAQPMMRPPFGAAAVRGTQLSPSP [P16R] | 3.36
12 | FAQPMMRPPFGAAAVSGTQLSPSP [P16S] | 3.02
13 | FAQPMMRPPFGAAAVQGTQLSPSP [P16Q] | 3.19
14 | FAQPMMRPPFGAAAVFGTQLSPSP [P16F] | 2.53
15 | FAQPMMRPPFGAAAVDGTQLSPSP [P16D] | 2.99
16 | FAQPMMRPPFGAAAVKGTQLSPSP [P16K] | 3.25
17 | FAQPMMRPPFGAAAVTGTQLSPSP [P16T] | 3.37
18 | FAQPMMRPPFGAAAVEGTQLSPSP [P16E] | 2.38
19 | FAQPMMRPPFGAAAVNGTQLSPSP [P16N] | 3.2
20 | FAQPMMRPPFGAAAVVGTQLSPSP [P16V] | 3.33
21 | FAQPMMRPPFGAAAVLGTQLSPSP [P16L] | 2.74
22 | FAQPMMRPPFGAAAVWGTQLSPSP [P16W] | 1.78
23 | FAQPMMRPPFGAAAVHGTQLSPSP [P16H] | 2.71
24 | FAQPMMRPPFGAAAVIGTQLSPSP [P16I] | 2.22

Row | Variant | protein stability index
25 | FAQPMMRPPFGAAAVCGTQLSPSP [P16C] | 2.77
26 | FAQPMMRPPFGAAAVAGTQLSPSP [P16A] | 3.29
27 | FAQPMMRPPFGAAAVPGTCLSPSP [Q19C] | 2.57
28 | FAQPMMRPPFGAAAVPGTNLSPSP [Q19N] | 3.17
29 | FAQPMMRPPFGAAAVPGTELSPSP [Q19E] | 2.72
30 | FAQPMMRPPFGAAAVPGTFLSPSP [Q19F] | 2.64
31 | FAQPMMRPPFGAAAVPGTSLSPSP [Q19S] | 2.84
32 | FAQPMMRPPFGAAAVPGTDLSPSP [Q19D] | 3.22
33 | FAQPMMRPPFGAAAVPGTHLSPSP [Q19H] | 3.08
34 | FAQPMMRPPFGAAAVPGTWLSPSP [Q19W] | 2.4
35 | FAQPMMRPPFGAAAVPGTKLSPSP [Q19K] | 2.41
36 | FAQPMMRPPFGAAAVPGTMLSPSP [Q19M] | 2.89
37 | FAQPMMRPPFGAAAVPGTTLSPSP [Q19T] | 2.87
38 | FAQPMMRPPFGAAAVPGTGLSPSP [Q19G] | 2.96
39 | FAQPMMRPPFGAAAVPGTYLSPSP [Q19Y] | 2.69
40 | FAQPMMRPPFGAAAVPGTILSPSP [Q19I] | 2.87
41 | FAQPMMRPPFGAAAVPGTVLSPSP [Q19V] | 2.96
42 | FAQPMMRPPFGAAAVPGTRLSPSP [Q19R] | 3
43 | FAQPMMRPPFGAAAVPGTALSPSP [Q19A] | 2.98
44 | FAQPMMRPPFGAAAVPGTLLSPSP [Q19L] | 2.5
45 | FAQPMMRPPFGAAAVPGTQCSPSP [L20C] | 3.7
46 | FAQPMMRPPFGAAAVPGTQDSPSP [L20D] | 2.98
47 | FAQPMMRPPFGAAAVPGTQQSPSP [L20Q] | 4.04
48 | FAQPMMRPPFGAAAVPGTQMSPSP [L20M] | 2.92

Row | Variant | protein stability index
49 | FAQPMMRPPFGAAAVPGTQFSPSP [L20F] | 2.71
50 | FAQPMMRPPFGAAAVPGTQASPSP [L20A] | 3.28
51 | FAQPMMRPPFGAAAVPGTQGSPSP [L20G] | 3.6
52 | FAQPMMRPPFGAAAVPGTQPSPSP [L20P] | 3.2
53 | FAQPMMRPPFGAAAVPGTQISPSP [L20I] | 3.02
54 | FAQPMMRPPFGAAAVPGTQESPSP [L20E] | 2.94
55 | FAQPMMRPPFGAAAVPGTQNSPSP [L20N] | 3.26
56 | FAQPMMRPPFGAAAVPGTQHSPSP [L20H] | 3.43
57 | FAQPMMRPPFGAAAVPGTQKSPSP [L20K] | 3.29
58 | FAQPMMRPPFGAAAVPGSQLSPSP [T18S] | 3.02
59 | FAQPMMRPPFGAAAVPGKQLSPSP [T18K] | 2.75
60 | FAQPMMRPPFGAAAVPGVQLSPSP [T18V] | 2.76
61 | FAQPMMRPPFGAAAVPGCQLSPSP [T18C] | 2.92
62 | FAQPMMRPPFGAAAVPGGQLSPSP [T18G] | 2.72
63 | FAQPMMRPPFGAAAVPGMQLSPSP [T18M] | 2.95
64 | FAQPMMRPPFGAAAVPGNQLSPSP [T18N] | 2.87
65 | FAQPMMRPPFGAAAVPGDQLSPSP [T18D] | 2.6
66 | FAQPMMRPPFGAAAVPGFQLSPSP [T18F] | 2.89
67 | FAQPMMRPPFGAAAVPGPQLSPSP [T18P] | 3.14
68 | FAQPMMRPPFGAAAVPGEQLSPSP [T18E] | 2.6
69 | FAQPMMRPPFGAAAVPGWQLSPSP [T18W] | 2.29
70 | FAQPMMRPPFGAAAVPGYQLSPSP [T18Y] | 2.58
71 | FAQPMMRPPFGAAAVPGQQLSPSP [T18Q] | 3.15
72 | FAQPMMRPPFGAAAVPGIQLSPSP [T18I] | 2.84

Row | Variant | protein stability index
73 | FAQPMMRPPFGAAAVPGAQLSPSP [T18A] | 3.1
74 | FAQPMMRPPFGAAAVPGLQLSPSP [T18L] | 2.95
75 | FAQPMMRPPFGAAAVPGHQLSPSP [T18H] | 2.82
76 | FAQPMMRPPFGAAAVPGRQLSPSP [T18R] | 3.41
77 | FAQPMMRPPFGAAAVPDTQLSPSP [G17D] | 3.04
78 | FAQPMMRPPFGAAAVPCTQLSPSP [G17C] | 2.71
79 | FAQPMMRPPFGAAAVPSTQLSPSP [G17S] | 2.81
80 | FAQPMMRPPFGAAAVPQTQLSPSP [G17Q] | 3.48
81 | FAQPMMRPPFGAAAVPITQLSPSP [G17I] | 2.88
82 | FAQPMMRPPFGAAAVPETQLSPSP [G17E] | 2.71
83 | FAQPMMRPPFGAAAVPHTQLSPSP [G17H] | 3.22
84 | FAQPMMRPPFGAAAVPTTQLSPSP [G17T] | 3.24
85 | FAQPMMRPPFGAAAVPWTQLSPSP [G17W] | 2.49
86 | FAQPMMRPPFGAAAVPLTQLSPSP [G17L] | 3.46
87 | FAQPMMRPPFGAAAVPNTQLSPSP [G17N] | 3.44
88 | FAQPMMRPPFGAAAVPATQLSPSP [G17A] | 3.11
89 | FAQPMMRPPFGAAAVPKTQLSPSP [G17K] | 3.17
90 | FAQPMMRPPFGAAAVPFTQLSPSP [G17F] | 2.69
91 | FAQPMMRPPFGAAAVPMTQLSPSP [G17M] | 2.84
92 | FAQPMMRPPFGAAAVPRTQLSPSP [G17R] | 3.89
93 | FAQPMMRPPFGAAAVPVTQLSPSP [G17V] | 2.85
94 | FAQPMMRPPFGAAAVPYTQLSPSP [G17Y] | 2.74

Reference: the supplement of paper PMC10567573
